Data published in article PMC9359782.

Target: Human immunoglobulin G (IgG) (human)
Assay: LSPR

## Bovine serum albumin (from UniProt P02769 25-607) (natural protein)
  LLSPR wavelength shift: < 1 nm
